Laboratory results published in patent US20040266694A1 (published 2004).

Tests used:
[1] = molecular target: T1, Recombinant human Flt-1/Fc chimera (R&D Systems) (human, UniProt P17948-2 27-687, limits assumed); experiment: receptor binding assay on immobilized Flt-1/Fc, bound peroxidase activity
[2] = molecular target: T1, Recombinant human Flt-1/Fc chimera (R&D …); experiment: receptor binding assay on immobilized Flt-1/Fc; reference: the peptide
[3] = molecular target: T1, Recombinant human Flt-1/Fc chimera (R&D …); experiment: phage ELISA on Flt-1/Fc captured by anti-Fc, anti-M13-HRP
[4] = molecular target: T1, Recombinant human Flt-1/Fc chimera (R&D …); experiment: competitive receptor binding assay on immobilized Flt-1/Fc; VEGF against 30 µM fluorescein labeled peptide (SEQ ID NO: 3)
Experimental: The cocktails were allowed to equilibrate for 4 hours at room temperature. After incubation, micrititer plates were washed with buffer B for 10 times. […] The results are represented as average of triplicate measurement ±SD.

T1 sequence (P17948 other isoform, or with tags, fused parts or gaps mutant limits assumed): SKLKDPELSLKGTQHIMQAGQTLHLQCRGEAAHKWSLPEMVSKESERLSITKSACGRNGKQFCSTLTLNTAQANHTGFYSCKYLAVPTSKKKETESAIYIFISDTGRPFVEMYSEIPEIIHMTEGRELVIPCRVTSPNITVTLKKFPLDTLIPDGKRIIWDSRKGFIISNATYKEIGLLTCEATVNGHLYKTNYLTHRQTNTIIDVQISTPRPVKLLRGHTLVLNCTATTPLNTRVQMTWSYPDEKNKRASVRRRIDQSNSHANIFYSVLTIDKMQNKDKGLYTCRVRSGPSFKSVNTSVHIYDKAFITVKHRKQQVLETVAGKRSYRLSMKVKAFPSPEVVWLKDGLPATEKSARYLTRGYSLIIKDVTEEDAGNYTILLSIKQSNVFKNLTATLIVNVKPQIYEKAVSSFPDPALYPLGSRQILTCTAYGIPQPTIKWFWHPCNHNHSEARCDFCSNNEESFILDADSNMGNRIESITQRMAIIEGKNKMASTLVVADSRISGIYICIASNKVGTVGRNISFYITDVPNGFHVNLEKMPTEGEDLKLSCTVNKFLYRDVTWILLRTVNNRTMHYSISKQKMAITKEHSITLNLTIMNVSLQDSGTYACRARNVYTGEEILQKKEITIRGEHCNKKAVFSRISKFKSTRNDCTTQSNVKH

B1: Conjugate NO.: 1, peroxidase-peptide conjugate (other, horseradish)
chain: QLTPTFYDNSCPNVSNIVRDTIVNELRSDPRIAASILRLHFHDCFVNGCDASILLDNTTSFRTEKDAFGNANSARGFPVIDRMKAAVESACPRTVSCADLLTIAAQQSVTLAGGPSWRVPLGRRDSLQAFLDLANANLPAPFFTLPQLKDSFRNVGLNRSSDLVALSGGHTFGKNQCRFIMDRLYNFSNTGLPDPTLNTTYLQTLRGLCPLNGNLSALVDFDLRTPTIFDNKYYVNLEEQKGLIQSDQELFSSPNATDTIPLVRSFANSTQTFFNAFVEAMDRMGNITPLTGTQGQIRLNCRVVNSNS
peptide: CNGYEIEWYSWVTHGMY
modifications: C-terminal amide (NH2); Cys 1 disulfide-linked through SPDP to peroxidase; activated with SPDP (N-succinimidyl-3-(2-pyridylthio)propionate), disulfide-linked to the peptide
notes: also called Conjugate ID NO:1; Conjuguate ID NO 1
With B1 the EC50 [1] was 100 nM and the “fold of half-maximum binding concentration against the peptide” value [2] was 50 fold.

B2: phage clone V5.10 (control peptide insert encoded by ONV5.10, SEQ ID NO: 10) (other, bacteriophage M13)
chain: PEPEVRLSPPGHIQSLAETVESCLAKPHTENSFTNVWKDDKTLDRYANYEGCLWNATGVVVCTGDETQCYGTWVPIGLAIPENEGGGSEGGGSEGGGSEGGGTKPPEYGDTPIPGYTYINPLDGTYPPGTEQNPANPNPSLEESQPLNTFMFQNNRFRNRQGALTVYTGTVTQGTDPVKTYYQYTPVSSKAMYDAYWNGKFRDCAFHSGFNEDPFVCEYQGQSSDLPQPPVNAGGGSGGGSGGGSEGGGSEGGGSEGGGSEGGGSGGGSGSGDFDYEKMANANKGAMTENADENALQSDAKGKLDSVATDYGAAIDGFIGDVSGLANGNGATGDFAGSNSQMAQVGDGDNSPLMNNFRQYLPSLPQSVECRPFVFSAGKPYEFSIDCDKINLFRGVFAFLLYVATFMYVFSTFANILRNKES
notes: Clone label V5.10 tied to oligonucleotide ONV5.10 by its name only
With B2 the “ABSORBANCE, A 405” value [3] was 0.039 A405.

B3: phage clone V40 (control peptide insert encoded by ONV40, SEQ ID NO: 11) (other, bacteriophage M13)
chain: FVGGWLVPEDERLYPEAETVESCLAKPHTENSFTNVWKDDKTLDRYANYEGCLWNATGVVVCTGDETQCYGTWVPIGLAIPENEGGGSEGGGSEGGGSEGGGTKPPEYGDTPIPGYTYINPLDGTYPPGTEQNPANPNPSLEESQPLNTFMFQNNRFRNRQGALTVYTGTVTQGTDPVKTYYQYTPVSSKAMYDAYWNGKFRDCAFHSGFNEDPFVCEYQGQSSDLPQPPVNAGGGSGGGSGGGSEGGGSEGGGSEGGGSEGGGSGGGSGSGDFDYEKMANANKGAMTENADENALQSDAKGKLDSVATDYGAAIDGFIGDVSGLANGNGATGDFAGSNSQMAQVGDGDNSPLMNNFRQYLPSLPQSVECRPFVFSAGKPYEFSIDCDKINLFRGVFAFLLYVATFMYVFSTFANILRNKES
notes: Clone label V40 tied to oligonucleotide ONV40 by its name only
With B3 the “ABSORBANCE, A 405” value [3] was 0.025 A405.

B4: human recombinant VEGF (R&D Systems) (ligand, UniProt P15692-4 27-191, looked up)
chain: APMAEGGGQNHHEVVKFMDVYQRSYCHPIETLVDIFQEYPDEIEYIFKPSCVPLMRCGGCCNDEGLECVPTEESNITMQIMRIKPHQGQHIGEMSFLQHNKCECRPKKDRARQENPCGPCSERRKHLFVQDPQTCKCSCKNTDSRCKARQLELNERTCRCDKPRR
notes: also called vascular endothelial factor
Binder B4 has an IC50 [4] of 5 nM.
